Source: US20230065562A1, “DUAL CONTROLS FOR THERAPEUTIC CELL ACTIVATION OR ELIMINATION” (Bellicum Pharmaceuticals, Inc., priority 2015, published 2023)

Test system: HEK293T/16 cells
Experiment: Secreted alkaline phosphatase (SEAP)-based surrogate killing assay of iCasp9 mutants
Assay type: cell-based, human
Conditions: for Basal Activity (relative to wild type/unmodified Caspase-9): SEAP assay without AP1903

| Molecule | Basal Activity (relative to wild type/unmodified Caspase-9) | Basal Activity (relative to wild type), predicted mutants (*) (marked '*, predicated') |
| --- | --- | --- |
| D330A-S183A: modified iCasp9 double mutant (protein, UniProt P55211 1-416, looked up, variant D330A S183A, FKBP12-F36V fusion (iCasp9), CARD deleted, modified iCasp9 double mutant) MDEADRRLLRRCRLRLVEELQVDQLWDALLSRELFRPHMIEDIQRAGSGSRRDQARQLIIDLETRGSQALPLFISCLEDTGQDMLASFLRTNRQAAKLSKPTLENLTPVVLRPEIRKPEVLRPETPRPVDIGSGGFGDVGALESLRGNADLAYILSMEPCGHCLIINNVNFCRESGLRTRTGANIDCEKLRRRFSSLHFMVEVKGDLTAKKMVLALLELAQQDHGALDCCVVVILSHGCQASHLQFPGAVYGTDGCPVSVEKIVNIFNGTSCPSLGGKPKLFFIQACGGEQKDHGFEVASTSPEDESPGSNPEPDATPFQEGLRTFDQLAAISSLPTPSDIFVSYSTFPGFVSWRDPKSGSWYVETLDDIFEQWAHSEDLQSLLLRVANAVSVKGIYKQMPGCFNFLRKKLFFKTS | Decreased |  |
| D330A-T317E: modified iCasp9 double mutant (protein, UniProt P55211 1-416, looked up, variant D330A T317E, FKBP12-F36V fusion (iCasp9), CARD deleted, modified iCasp9 double mutant) MDEADRRLLRRCRLRLVEELQVDQLWDALLSRELFRPHMIEDIQRAGSGSRRDQARQLIIDLETRGSQALPLFISCLEDTGQDMLASFLRTNRQAAKLSKPTLENLTPVVLRPEIRKPEVLRPETPRPVDIGSGGFGDVGALESLRGNADLAYILSMEPCGHCLIINNVNFCRESGLRTRTGSNIDCEKLRRRFSSLHFMVEVKGDLTAKKMVLALLELAQQDHGALDCCVVVILSHGCQASHLQFPGAVYGTDGCPVSVEKIVNIFNGTSCPSLGGKPKLFFIQACGGEQKDHGFEVASTSPEDESPGSNPEPDAEPFQEGLRTFDQLAAISSLPTPSDIFVSYSTFPGFVSWRDPKSGSWYVETLDDIFEQWAHSEDLQSLLLRVANAVSVKGIYKQMPGCFNFLRKKLFFKTS | dead |  |
| N405Q-S144Aco: codon-optimized double mutant, class predicted (protein, UniProt P55211 1-416, looked up, variant N405Q S144A, FKBP12-F36V fusion (iCasp9), codon-optimized, codon-optimized double mutant, class predicted) MDEADRRLLRRCRLRLVEELQVDQLWDALLSRELFRPHMIEDIQRAGSGSRRDQARQLIIDLETRGSQALPLFISCLEDTGQDMLASFLRTNRQAAKLSKPTLENLTPVVLRPEIRKPEVLRPETPRPVDIGSGGFGDVGALEALRGNADLAYILSMEPCGHCLIINNVNFCRESGLRTRTGSNIDCEKLRRRFSSLHFMVEVKGDLTAKKMVLALLELAQQDHGALDCCVVVILSHGCQASHLQFPGAVYGTDGCPVSVEKIVNIFNGTSCPSLGGKPKLFFIQACGGEQKDHGFEVASTSPEDESPGSNPEPDATPFQEGLRTFDQLDAISSLPTPSDIFVSYSTFPGFVSWRDPKSGSWYVETLDDIFEQWAHSEDLQSLLLRVANAVSVKGIYKQMPGCFQFLRKKLFFKTS |  | Decreased |
| S307A: modified iCasp9, S307A (protein, UniProt P55211 1-416, looked up, variant S307A, FKBP12-F36V fusion (iCasp9), CARD deleted) MDEADRRLLRRCRLRLVEELQVDQLWDALLSRELFRPHMIEDIQRAGSGSRRDQARQLIIDLETRGSQALPLFISCLEDTGQDMLASFLRTNRQAAKLSKPTLENLTPVVLRPEIRKPEVLRPETPRPVDIGSGGFGDVGALESLRGNADLAYILSMEPCGHCLIINNVNFCRESGLRTRTGSNIDCEKLRRRFSSLHFMVEVKGDLTAKKMVLALLELAQQDHGALDCCVVVILSHGCQASHLQFPGAVYGTDGCPVSVEKIVNIFNGTSCPSLGGKPKLFFIQACGGEQKDHGFEVASTSPEDEAPGSNPEPDATPFQEGLRTFDQLDAISSLPTPSDIFVSYSTFPGFVSWRDPKSGSWYVETLDDIFEQWAHSEDLQSLLLRVANAVSVKGIYKQMPGCFNFLRKKLFFKTS | Decreased |  |
| D330A-Y153F: modified iCasp9 double mutant (protein, UniProt P55211 1-416, looked up, variant D330A Y153F, FKBP12-F36V fusion (iCasp9), CARD deleted, modified iCasp9 double mutant) MDEADRRLLRRCRLRLVEELQVDQLWDALLSRELFRPHMIEDIQRAGSGSRRDQARQLIIDLETRGSQALPLFISCLEDTGQDMLASFLRTNRQAAKLSKPTLENLTPVVLRPEIRKPEVLRPETPRPVDIGSGGFGDVGALESLRGNADLAFILSMEPCGHCLIINNVNFCRESGLRTRTGSNIDCEKLRRRFSSLHFMVEVKGDLTAKKMVLALLELAQQDHGALDCCVVVILSHGCQASHLQFPGAVYGTDGCPVSVEKIVNIFNGTSCPSLGGKPKLFFIQACGGEQKDHGFEVASTSPEDESPGSNPEPDATPFQEGLRTFDQLAAISSLPTPSDIFVSYSTFPGFVSWRDPKSGSWYVETLDDIFEQWAHSEDLQSLLLRVANAVSVKGIYKQMPGCFNFLRKKLFFKTS | dead |  |
| Y153A: modified iCasp9, Y153A (protein, UniProt P55211 1-416, looked up, variant Y153A, FKBP12-F36V fusion (iCasp9), CARD deleted) MDEADRRLLRRCRLRLVEELQVDQLWDALLSRELFRPHMIEDIQRAGSGSRRDQARQLIIDLETRGSQALPLFISCLEDTGQDMLASFLRTNRQAAKLSKPTLENLTPVVLRPEIRKPEVLRPETPRPVDIGSGGFGDVGALESLRGNADLAAILSMEPCGHCLIINNVNFCRESGLRTRTGSNIDCEKLRRRFSSLHFMVEVKGDLTAKKMVLALLELAQQDHGALDCCVVVILSHGCQASHLQFPGAVYGTDGCPVSVEKIVNIFNGTSCPSLGGKPKLFFIQACGGEQKDHGFEVASTSPEDESPGSNPEPDATPFQEGLRTFDQLDAISSLPTPSDIFVSYSTFPGFVSWRDPKSGSWYVETLDDIFEQWAHSEDLQSLLLRVANAVSVKGIYKQMPGCFNFLRKKLFFKTS | Decreased |  |
| N405Q-S144D: modified iCasp9 double mutant (protein, UniProt P55211 1-416, looked up, variant N405Q S144D, FKBP12-F36V fusion (iCasp9), CARD deleted, modified iCasp9 double mutant) MDEADRRLLRRCRLRLVEELQVDQLWDALLSRELFRPHMIEDIQRAGSGSRRDQARQLIIDLETRGSQALPLFISCLEDTGQDMLASFLRTNRQAAKLSKPTLENLTPVVLRPEIRKPEVLRPETPRPVDIGSGGFGDVGALEDLRGNADLAYILSMEPCGHCLIINNVNFCRESGLRTRTGSNIDCEKLRRRFSSLHFMVEVKGDLTAKKMVLALLELAQQDHGALDCCVVVILSHGCQASHLQFPGAVYGTDGCPVSVEKIVNIFNGTSCPSLGGKPKLFFIQACGGEQKDHGFEVASTSPEDESPGSNPEPDATPFQEGLRTFDQLDAISSLPTPSDIFVSYSTFPGFVSWRDPKSGSWYVETLDDIFEQWAHSEDLQSLLLRVANAVSVKGIYKQMPGCFQFLRKKLFFKTS | Decreased |  |
| N405Qco: codon-optimized version of N405Q modified Caspase-9 (protein, UniProt P55211 1-416, looked up, variant N405Q, FKBP12-F36V fusion (iCasp9), codon-optimized) MDEADRRLLRRCRLRLVEELQVDQLWDALLSRELFRPHMIEDIQRAGSGSRRDQARQLIIDLETRGSQALPLFISCLEDTGQDMLASFLRTNRQAAKLSKPTLENLTPVVLRPEIRKPEVLRPETPRPVDIGSGGFGDVGALESLRGNADLAYILSMEPCGHCLIINNVNFCRESGLRTRTGSNIDCEKLRRRFSSLHFMVEVKGDLTAKKMVLALLELAQQDHGALDCCVVVILSHGCQASHLQFPGAVYGTDGCPVSVEKIVNIFNGTSCPSLGGKPKLFFIQACGGEQKDHGFEVASTSPEDESPGSNPEPDATPFQEGLRTFDQLDAISSLPTPSDIFVSYSTFPGFVSWRDPKSGSWYVETLDDIFEQWAHSEDLQSLLLRVANAVSVKGIYKQMPGCFQFLRKKLFFKTS | Decreased |  |
| D330A-S144A: modified iCasp9 double mutant (protein) VDGFGDVGALEALRGNADLAYILSMEPCGHCLIINNVNFCRESGLRTRTGSNIDCEKLRRRFSSLHFMVEVKGDLTAKKMVLALLELARQDHGALDCCVVVILSHGCQASHLQFPGAVYGTDGCPVSVEKIVNIFNGTSCPSLGGKPKLFFIQACGGEQKDHGFEVASTSPEDESPGSNPEPDATPFQEGLRTFDQLAAISSLPTPSDIFVSYSTFPGFVSWRDPKSGSWYVETLDDIFEQWAHSEDLQSLLLRVANAVSVKGIYKQMPGCFNFLRKKLFFKTSASRA | Decreased |  |
| D330A-S196A: modified iCasp9 double mutant (protein) VDGFGDVGALESLRGNADLAYILSMEPCGHCLIINNVNFCRESGLRTRTGSNIDCEKLRRRFSALHFMVEVKGDLTAKKMVLALLELARQDHGALDCCVVVILSHGCQASHLQFPGAVYGTDGCPVSVEKIVNIFNGTSCPSLGGKPKLFFIQACGGEQKDHGFEVASTSPEDESPGSNPEPDATPFQEGLRTFDQLAAISSLPTPSDIFVSYSTFPGFVSWRDPKSGSWYVETLDDIFEQWAHSEDLQSLLLRVANAVSVKGIYKQMPGCFNFLRKKLFFKTSASRA | Decreased |  |
| D330A-S144D: modified iCasp9 double mutant (protein) VDGFGDVGALEDLRGNADLAYILSMEPCGHCLIINNVNFCRESGLRTRTGSNIDCEKLRRRFSSLHFMVEVKGDLTAKKMVLALLELARQDHGALDCCVVVILSHGCQASHLQFPGAVYGTDGCPVSVEKIVNIFNGTSCPSLGGKPKLFFIQACGGEQKDHGFEVASTSPEDESPGSNPEPDATPFQEGLRTFDQLAAISSLPTPSDIFVSYSTFPGFVSWRDPKSGSWYVETLDDIFEQWAHSEDLQSLLLRVANAVSVKGIYKQMPGCFNFLRKKLFFKTSASRA | Decreased |  |
| N405Q-S144A: modified iCasp9 double mutant (protein) VDGFGDVGALEALRGNADLAYILSMEPCGHCLIINNVNFCRESGLRTRTGSNIDCEKLRRRFSSLHFMVEVKGDLTAKKMVLALLELARQDHGALDCCVVVILSHGCQASHLQFPGAVYGTDGCPVSVEKIVNIFNGTSCPSLGGKPKLFFIQACGGEQKDHGFEVASTSPEDESPGSNPEPDATPFQEGLRTFDQLDAISSLPTPSDIFVSYSTFPGFVSWRDPKSGSWYVETLDDIFEQWAHSEDLQSLLLRVANAVSVKGIYKQMPGCFQFLRKKLFFKTSASRA | Decreased |  |
